According to paper PMC7016029:
Where two headings read alike, the source gives them in different places.

B1: Apt01 (structured_DNA)
DNA: GTCGTGTTTGTTGTTGTTTTCATTTTTGCGGCCC
B2: Apt02 (structured_DNA)
DNA: GCTGATAGGATGGGTTGTAGGTCTAGGGGGGGGCC

Columns and labels:
VEGFR-1 Fc chimera [1] = biological target: T1, VEGFR-1 Fc chimera (UniProt P17948 27-758); experiment: SPR
VEGFR-1 Fc chimera [2] = biological target: T1, VEGFR-1 Fc chimera; experiment: SPR; remark: listed apart in the source

T1 sequence (P17948 27-758, change not shown): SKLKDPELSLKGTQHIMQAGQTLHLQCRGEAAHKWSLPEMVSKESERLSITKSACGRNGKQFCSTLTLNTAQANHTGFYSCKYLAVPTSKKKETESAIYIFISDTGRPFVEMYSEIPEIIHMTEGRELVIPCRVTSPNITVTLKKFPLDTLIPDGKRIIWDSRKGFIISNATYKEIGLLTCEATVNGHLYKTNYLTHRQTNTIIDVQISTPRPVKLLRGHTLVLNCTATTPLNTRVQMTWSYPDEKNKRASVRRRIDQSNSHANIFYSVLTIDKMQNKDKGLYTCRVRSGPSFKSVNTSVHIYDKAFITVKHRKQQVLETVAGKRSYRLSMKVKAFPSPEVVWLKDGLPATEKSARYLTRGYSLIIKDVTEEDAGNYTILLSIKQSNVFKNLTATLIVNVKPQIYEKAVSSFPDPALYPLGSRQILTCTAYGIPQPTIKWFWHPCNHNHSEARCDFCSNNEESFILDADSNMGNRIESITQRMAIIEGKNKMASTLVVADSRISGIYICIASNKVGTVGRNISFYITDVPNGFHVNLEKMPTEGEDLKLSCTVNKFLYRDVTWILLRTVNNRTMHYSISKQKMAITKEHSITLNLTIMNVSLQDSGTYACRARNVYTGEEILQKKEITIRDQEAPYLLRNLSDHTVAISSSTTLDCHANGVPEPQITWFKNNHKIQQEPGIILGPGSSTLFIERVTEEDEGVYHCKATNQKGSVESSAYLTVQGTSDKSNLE

Row | Binder | Kd (VEGFR-1 Fc chimera [1]) [nM] | Kd (VEGFR-1 Fc chimera [2]) [nM]
1 | B1 | 3.3 | 
2 | B2 |  | 1.5
